Results taken from US8771644B2, “Imaging probes” (Sanofi, priority 2007, dated 2014).

Experiments:
Format in all cases: biochemical
[1] = substrate: CN(C)c1ccc(/N=N/c2ccc(C(=O)NCCCC[C@H](NC(=O)[C@H](CCC(=O)NCCNc3cccc4c(S(=O)(=O)O)cccc34)NC(=O)[C@H](CC3CCCCC3)NC(=O)N3CCOCC3)C(=O)O)cc2)cc1; assay: in vitro activity assay (fluorescence, substrate cleavage) with Cath K; conditions: other: Cath K; measurement performed at pH 7.5; pH 7.5; 37.0 °C
Experimental: (§1) […] The substrates were solved in DMSO and added to enzyme solution with a final concentration of 50 μM.
(§2) Fluorescence was measured with an Tecan SAFIRE II spectrometer (excitation wavelength: 336 nm; emission wavelength: 490 nm; excitation band: 10.0 nm; emission band: 10.0 nm; amplification (manual): 90).

[2] = substrate: CN(C)c1ccc2c(c1)Oc1cc(N(C)C)ccc1C21OC(=O)c2cc(C(=O)NCC[C@H](NC(=O)[C@H](CC3CCCCC3)NC(=O)N3CCOCC3)C(=O)NCCNC(=O)c3ccc(-c4c5ccc(=O)cc-5oc5cc(O)ccc45)c(C(=O)O)c3)ccc21; assay: as above; conditions: other: Cath K; measurement performed at pH 5.5; pH 5.5; 37.0 °C
Experimental: as §1, §2

[3] = substrate: CN(C)c1ccc(/N=N/c2ccc(C(=O)NCCCC[C@H](NC(=O)[C@H](CCC(=O)NCCNc3cccc4c(S(=O)(=O)O)cccc34)NC(=O)[C@H](CC3CCCCC3)NC(=O)N3CCOCC3)C(=O)O)cc2)cc1; assay: in vitro activity assay (fluorescence, substrate cleavage) with Cath S; conditions: other: Cath S, measurement performed at pH 7.5, 37.0 °C
[4] = substrate: CN(C)c1ccc(/N=N/c2ccc(C(=O)NCCCC[C@H](NC(=O)[C@H](CCC(=O)NCCNc3cccc4c(S(=O)(=O)O)cccc34)NC(=O)[C@H](CC3CCCCC3)NC(=O)N3CCOCC3)C(=O)O)cc2)cc1; assay: in vitro activity assay (fluorescence, substrate cleavage) with Papain; conditions: other: Papain; measurement performed at pH 7.5; pH 7.5; 37.0 °C
Experimental: as §1, §2

[5] = substrate: CN(C)c1ccc2c(c1)Oc1cc(N(C)C)ccc1C21OC(=O)c2cc(C(=O)NCC[C@H](NC(=O)[C@H](CC3CCCCC3)NC(=O)N3CCOCC3)C(=O)NCCNC(=O)c3ccc(-c4c5ccc(=O)cc-5oc5cc(O)ccc45)c(C(=O)O)c3)ccc21; assay: as above; conditions: other: Papain; measurement performed at pH 5.5; pH 5.5; 37.0 °C
Experimental: as §1, §2

B1: Cath K (Homo sapiens) (protein)
chain: APDSVDYRKKGYVTPVKNQGQCGSCWAFSSVGALEGQLKKKTGKLLNLSPQNLVDCVSENDGCGGGYMTNAFQYVQKNRGIDSEDAYPYVGQEESCMYNPTGKAAKCRGYREIPEGNEKALKRAVARVGPVSVAIDASLTSFQFYSKGVYYDESCNSDNLNHAVLAVGYGIQKGNKHWIIKNSWGENWGNKGYILMARNKNNACGIANLASFPKM
Km [1]: 190 µM
Vmax [1]: 0.018 µmol/min
kcat/Km [1]: 27 M⁻¹ s⁻¹
Km [2]: 35 µM
Vmax [2]: 0.438 µmol/min
kcat [2]: 0.192 s⁻¹

B2: Cath S (Homo sapiens) (protein)
chain: LPDSVDWREKGCVTEVKYQGSCGACWAFSAVGALEAQLKLKTGKLVSLSAQNLVDCSTEKYGNKGCNGGFMTTAFQYIIDNKGIDSDASYPYKAMDQKCQYDSKYRAATCSKYTELPYGREDVLKEAVANKGPVSVGVDARHPSFFLYRSGVYYEPSCTQNVNHGVLVVGYGDLNGKEYWLVKNSWGHNFGEEGYIRMARNKGNHCGIASFPSYPEI
Km [3]: 32 µM
Vmax [3]: 0.144 µmol/min
kcat [3]: 0.11 s⁻¹
kcat/Km [3]: 3260 M⁻¹ s⁻¹

B3: Papain (Carica papaya) (protein)
chain: IPEYVDWRQKGAVTPVKNQGSCGSCWAFSAVVTIEGIIKIRTGNLNEYSEQELLDCDRRSYGCNGGYPWSALQLVAQYGIHYRNTYPYEGVQRYCRSREKGPYAAKTDGVRQVQPYNEGALLYSIANQPVSVVLEAAGKDFQLYRGGIFVGPCGNKVDHAVAAVGYGPNYILIKNSWGTGWGENGYIRIKRGTGNSYGVCGLYTSSFYPVKN
Km [4]: 520 µM
Vmax [4]: 0.096 µmol/min
kcat [4]: 0.1 s⁻¹
kcat/Km [4]: 273 M⁻¹ s⁻¹
Km [5]: 6.3 µM
Vmax [5]: 0.0024 µmol/min
kcat [5]: 0.002 s⁻¹
